Source: patent US20250327057A1, “NOVEL AMINOACYL-TRNA SYNTHETASE VARIANTS FOR GENETIC CODE EXPANSION IN EUKARYOTES” (VERAXA Biotech GmbH, priority 2021, published 2025)
Entries after “also recorded” stand apart in the source; their conditions may differ.

What was measured:
[1] = test system: iRFP-EGFP^Y39TAG reporter in HEK293T cells; assay: FFC test of importance of Y306A and Y384F for incorporation of bulky ncAAs, Example 3; format: cell-based
Procedure: These new PylRS variants as obtained from example 1 were tested in HEK293T cells utilizing a fluorescent reporter by fluorescent flow cytometry (FFC). The reporter contains an infrared fluorescent protein (iRFP) fused to enhanced green fluorescent protein (EGFP) which harbors an amber stop codon at position Y39 and is called iRFP-EGFP^Y39TAG. To analyze the incorporation efficiency for each new PylRS variant, transient transfection with different ncAAs and different amounts of ncAAs were performed.
The iRFP and EGFP signals were measured after 24 hours post transfection. Therefore, HEK293T cells were seeded in 24-well plate 16 hours prior to transfection. For the two-plasmid transfection, 1 μg of total DNA was used per well. The DNA was mixed with 50 μl of DMEM medium without Phenol Red and 3 μl of PEI were added. After 10 seconds of vortexing and a short centrifugation step, the DNA mixture was incubated 15 minutes in the hood, before it was added dropwise to the well. A master mix was prepared for all wells whenever suitable. After four hours of incubation, the medium was aspirated and fresh medium with different concentrations of ncAAs was added. The concentration of ncAA was 250 μM. After 20 hours of incubation, the iRFP and EGFP signal was analyzed with a flow cytometer analyzer (LSRFortessa™, BD Biosciences). Stock solutions for all ncAAs were prepared as described previously (Nikic, I., Kang, J. H., Girona, G. E., Aramburu, I. V. & Lemke, E. A. Labeling proteins on live mammalian cells using click chemistry. Nat. Protoc. 10, 780-791 (2015)).
To test, if the mutations Y306A and Y384F are really important for the incorporation of bulky ncAAs, these amino acids were changed back to their original amino acid residues by site directed mutagenesis in the case of the PylRS AF A1 variant.
The FFC test was with TCO*A, TCO-E and in addition with Boc using the variants PylRS A1, PylRS AF, PylRS AF A1 and PylRS MMA. PylRS MMA has the mutations 306M 309M 348A. FIG. 3 illustrates the data obtained by FFC in bar plots for the different ncAAs used. […] These bar plot illustrates on how much higher the incorporation efficiency is for each variant compared to PylRS AF.

[2] = test system: iRFP-EGFP^Y39TAG reporter in HEK293T cells; assay: Incorporation assay for cyclooctyne-lysine (SCO) by FFC, Example 4; format: cell-based; conditions: ncAA SCO, 15.625 μM to 500 μM, FIG. 5
Procedure: To test the incorporation efficiency of another ncAA by the new variant PylRS A1, an incorporation assay was performed utilizing HEK293T cells. The cells were co-transfected with a plasmid containing NES-PylRS A1 containing as well the corresponding tRNA^Pyl gene together with the reporter plasmid pCI-iRFP-EGFP^Y39TAG-6His (SEQ ID NO: 97). Different concentrations of SCO were added to the growth medium 4 hours after the transfection of the cells ranging from 15.625 μM to 500 μM SCO. After 20 hours of incubation, the iRFP and EGFP signal was analyzed with a flow cytometer analyzer (LSRFortessa™, BD Biosciences) as mentioned above.

Molecule | ability to incorporate bulky ncAAs ([1]; TCO*A, TCO-E, Boc, HEK293T) | incorporation efficiency relative to PylRS AF ([1]; ncAA Boc) | incorporation efficiency (mean GFP/mean iRFP), ranking among variants ([1]; ncAA Boc, FIG. 3C) | incorporation efficiency (mean GFP/mean iRFP), ranking among variants ([1]; ncAA TCO*A, FIG. 3B) | incorporation efficiency relative to PylRS AF ([1]; ncAA TCO*A, independent of the ncAA concentration used) [×] | incorporation efficiency (mean GFP/mean iRFP), ranking among variants ([1]; ncAA TCO-E, FIG. 3A) | incorporation efficiency relative to PylRS AF ([1]; ncAA TCO-E, depending on the concentration used) | incorporation of SCO (EGFP signal by FFC) [2] | incorporation efficiency relative to PylRS AF ([1]; ncAA TCO-E)
PylRS A1: M. mazei PylRS mutant L309M, C348G, I405R without Y306A/Y384F (SEQ ID NO: 70) (protein) MDKKPLNTLISATGLWMSRTGTIHKIKHHEVSRSKIYIEMACGDHLVVNNSRSSRTARALRHHKYRKTCKRCRVSDEDLNKFLTKANEDQTSVKVKVVSAPTRTKKAMPKSVARAPKPLENTEAAQAQPSGSKFSPAIPVSTQESVSVPASVSTSISSISTGATASALVKGNTNPITSMSAPVQASAPALTKSQTDRLEVLLNPKDEISLNSGKPFRELESELLSRRKKDLQQIYAEERENYLGKLEREITRFFVDRGFLEIKSPILIPLEYIERMGIDNDTELSKQIFRVDKNFCLRPMLAPNLYNYMRKLDRALPDPIKIFEIGPCYRKESDGKEHLEEFTMLNFGQMGSGCTRENLESIITDFLNHLGIDFKIVGDSCMVYGDTLDVMHGDLELSSAVVGPRPLDREWGIDKPWIGAGFGLERLLKVKHDFKNIKRAARSESYYNGISTNL | better synthetase for bulky ncAAs; also recorded: able to incorporate bulky ncAAs | up to 4.5 × | highest incorporation efficiency | best incorporation | 1.2 | highest incorporation efficiency | up to 30 times | can incorporate SCO efficiently | –
PylRS AF A1: PylRS AF variant with 309M, 348G, 405R (SEQ ID NO: 108) (protein) MDKKPLNTLISATGLWMSRTGTIHKIKHHEVSRSKIYIEMACGDHLVVNNSRSSRTARALRHHKYRKTCKRCRVSDEDLNKFLTKANEDQTSVKVKVVSAPTRTKKAMPKSVARAPKPLENTEAAQAQPSGSKFSPAIPVSTQESVSVPASVSTSISSISTGATASALVKGNTNPITSMSAPVQASAPALTKSQTDRLEVLLNPKDEISLNSGKPFRELESELLSRRKKDLQQIYAEERENYLGKLEREITRFFVDRGFLEIKSPILIPLEYIERMGIDNDTELSKQIFRVDKNFCLRPMLAPNLANYMRKLDRALPDPIKIFEIGPCYRKESDGKEHLEEFTMLNFGQMGSGCTRENLESIITDFLNHLGIDFKIVGDSCMVFGDTLDVMHGDLELSSAVVGPRPLDREWGIDKPWIGAGFGLERLLKVKHDFKNIKRAARSESYYNGISTNL | – | – | – | – | – | highest incorporation efficiency | – | – | –
PylRS MMA: M. mazei PylRS mutant Y306M, L309M, C348A (SEQ ID NO: 72) (protein) MDKKPLNTLISATGLWMSRTGTIHKIKHHEVSRSKIYIEMACGDHLVVNNSRSSRTARALRHHKYRKTCKRCRVSDEDLNKFLTKANEDQTSVKVKVVSAPTRTKKAMPKSVARAPKPLENTEAAQAQPSGSKFSPAIPVSTQESVSVPASVSTSISSISTGATASALVKGNTNPITSMSAPVQASAPALTKSQTDRLEVLLNPKDEISLNSGKPFRELESELLSRRKKDLQQIYAEERENYLGKLEREITRFFVDRGFLEIKSPILIPLEYIERMGIDNDTELSKQIFRVDKNFCLRPMLAPNLMNYMRKLDRALPDPIKIFEIGPCYRKESDGKEHLEEFTMLNFAQMGSGCTRENLESIITDFLNHLGIDFKIVGDSCMVYGDTLDVMHGDLELSSAVVGPIPLDREWGIDKPWIGAGFGLERLLKVKHDFKNIKRAARSESYYNGISTNL | – | – | – | – | – | – | – | – | up to 10 ×
